Stoichiometry N data for one substance are collected here from paper PMC12436618.

For this experiment, the target named is KIF1A-201(1-482)-His (mouse). Nature of the experiment: SEC; Superdex 200 Increase 10/300 GL; 250 µg of each protein at about 1.2 µg/µl; 20 mM PIPES-KOH pH 7.0, 150 mM KCl, 1 mM MgCl2, 0.1% Tween 20; size from a calibration curve of globular standards; monomer to dimer. A general note: Size exclusion chromatography separates by hydrodynamic size, large species first.

Usually stoichiometry N stands for the number of molecules, sites or subunits per partner or assembly. “KIF1A-201(1-482)-His (domain or fragment)” returned a stoichiometry N of 2.
